Our source for the net charge and pKa values is patent publication US20250009931A1 (GEL4MED, INC., priority 2021, published 2025).

Data set [1] in a line: Net charge and isoelectric point of peptide. It counts as physicochemical. To be noted: pH 7. From the text: The peptide may be purified. For example, the peptide may be lyophilized. […] Other peptides are within the scope of the disclosure.
Exemplary peptides having a charge of +5 to +9 include […](d)[…], […](d)[…], and […](d)[…]. In other embodiments, the purified peptide may be substantially neutral. […] Net charge may be selected by peptide design. Design of electrostatic charge in the peptide hydrogel may allow control of charge interaction with cell membrane and proteins.

The conditions of data set [2]: cited from earlier work.

Square brackets hold non-standard residues; d marks the D form. Ends that are not written are not given here.

“VEVSVSVEVPPTEVSVEVEV (VEVSVSVEV[dP]PTEVSVEVEV)”: the net charge result in data set [1] is “net negative charge”.
As for `O=C(O)C(F)(F)F` [trifluoroacetic acid], in data set [2], the pKa result is “about 0”.
